The values below come from patent US20200231652A1.

The target of assay [1] is TGF-β3 (UniProt P10600). Put plainly: cell-based or functional assay.
Assay [2] concerns the target TGF-β2 (UniProt P61812). Put plainly: cell-based or functional assay.
Assay [3] has as its target TGF-β1 (UniProt P01137). Put plainly: cell-based or functional assay.
The target of assay [4] is TGF-β1 (UniProt P01137).
Chain of TGF-β1 (P01137 279-390 limits assumed): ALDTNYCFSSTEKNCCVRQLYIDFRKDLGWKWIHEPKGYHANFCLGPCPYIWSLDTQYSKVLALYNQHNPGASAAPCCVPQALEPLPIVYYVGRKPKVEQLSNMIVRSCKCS

Chain of TGF-β3 (P10600 301-412 limits assumed): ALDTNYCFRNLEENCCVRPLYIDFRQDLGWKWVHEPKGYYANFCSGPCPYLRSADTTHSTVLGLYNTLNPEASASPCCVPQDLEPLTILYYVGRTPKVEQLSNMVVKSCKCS
Chain of TGF-β2 (P61812 303-414 limits assumed): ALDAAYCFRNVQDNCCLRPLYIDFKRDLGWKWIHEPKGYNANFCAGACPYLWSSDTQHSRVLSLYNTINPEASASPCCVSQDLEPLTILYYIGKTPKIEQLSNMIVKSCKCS

B1: FC5-Fc-T2m (Fc fusion)
chain: EVQLQASGGGLVQAGGSLRLSCAASGFKITHYTMGWFRQAPGKEREFVSRITWGGDNTFYSNSVKGRFTISRDNAKNTVYLQMNSLKPEDTADYYCAAGSTSTATPLRVDYWGKGTQVTVSSASEPRGPTIKPCPPCKCPAPNLLGGPSVFIFPPKIKDVLMISLSPIVTCVVVDVSEDDPDVQISWFVNNVEVHTAQTQTHREDYNSTLRVVSALPIQHQDWMSGKEFKCKVNNKDLPAPIERTISKPKGSVRAPQVYVLPPPEEEMTKKQVTLTCMVTDFMPEDIYVEWTNNGKTELNYKNTEPVLDSDGSYFMYSKLRVEKKNWVERNSYSCSVVHEGLHNHHTTKSFSRTPGTGIPPHVQKSVNNDMIVTDNNGAVKFPQLCKFCDVRFSTCDNQKSCMSNCSITSICEKPQEVCVAVWRKNDENITLETVCHDPKLPYHDFILEDAASPKCIMKEKKKPGETFFMCSCSSDECNDNIIFSEEYNTSNPD
B1: the Av IC50, TGF-β neutralization, Mv1Lu cell luciferase reporter assay in assay [1] came to 0.015 pM; in assay [2] it was 433000 pM; in assay [3] it was 0.017 pM.

B2: hIgG2Fc-CCCC-T22d35 fusion (Fc fusion)
chain: ERKCCVECPPCPAPPVAGPSVFLFPPKPKDTLMISRTPEVTCVVVDVSHEDPEVQFNWYVDGVEVHNAKTKPREEQFNSTFRVVSVLTVVHQDWLNGKEYKCKVSNKGLPAPIEKTISKTKGQPREPQVYTLPPSREEMTKNQVSLTCLVKGFYPSDISVEWESNGQPENNYKTTPPMLDSDGSFFLYSKLTVDKSRWQQGNVFSCSVMHEALHNHYTQKSLSLSPGKIPPHVQKSVNNDMIVTDNNGAVKFPQLCKFCDVRFSTCDNQKSCMSNCSITSICEKPQEVCVAVWRKNDENITLETVCHDPKLPYHDFILEDAASPKCIMKEKKKPGETFFMCSCSSDECNDNIIFSEEYNTSNPDIPPHVQKSVNNDMIVTDNNGAVKFPQLCKFCDVRFSTCDNQKSCMSNCSITSICEKPQEVCVAVWRKNDENITLETVCHDPKLPYHDFILEDAASPKCIMKEKKKPGETFFMCSCSSDECNDNIIFSEEYNTSNPD
Regarding B2, the Av IC50, TGF-β neutralization, Mv1Lu cell luciferase reporter assay in assay [1] turned out to be 0.026 pM. In addition, in assay [2], the Av IC50, TGF-β neutralization, Mv1Lu cell luciferase reporter assay was 108000 pM. For the same molecule, in assay [3], the Av IC50, TGF-β neutralization, Mv1Lu cell luciferase reporter assay came out at 1.45 pM and the IC50, A549 cell IL-11 release assay was determined as 5 pM. Also, in assay [4], the Fold Change Fc-T2m, A549 cell IL-11 release assay [table] was determined as 9 fold; the Fold Change T22d35, A549 cell IL-11 release assay [table] is 94 fold; the IC50, A549 cell IL-11 release assay [table] is 6.17 pM.

B3: FC5-Fc-T22d35 (Fc fusion)
chain: EVQLQASGGGLVQAGGSLRLSCAASGFKITHYTMGWFRQAPGKEREFVSRITWGGDNTFYSNSVKGRFTISRDNAKNTVYLQMNSLKPEDTADYYCAAGSTSTATPLRVDYWGKGTQVTVSSASEPRGPTIKPCPPCKCPAPNLLGGPSVFIFPPKIKDVLMISLSPIVTCVVVDVSEDDPDVQISWFVNNVEVHTAQTQTHREDYNSTLRVVSALPIQHQDWMSGKEFKCKVNNKDLPAPIERTISKPKGSVRAPQVYVLPPPEEEMTKKQVTLTCMVTDFMPEDIYVEWTNNGKTELNYKNTEPVLDSDGSYFMYSKLRVEKKNWVERNSYSCSVVHEGLHNHHTTKSFSRTPGTGIPPHVQKSVNNDMIVTDNNGAVKFPQLCKFCDVRFSTCDNQKSCMSNCSITSICEKPQEVCVAVWRKNDENITLETVCHDPKLPYHDFILEDAASPKCIMKEKKKPGETFFMCSCSSDECNDNIIFSEEYNTSNPDIPPHVQKSVNNDMIVTDNNGAVKFPQLCKFCDVRFSTCDNQKSCMSNCSITSICEKPQEVCVAVWRKNDENITLETVCHDPKLPYHDFILEDAASPKCIMKEKKKPGETFFMCSCSSDECNDNIIFSEEYNTSNPD
Regarding B3, in assay [1], the Av IC50, TGF-β neutralization, Mv1Lu cell luciferase reporter assay came to 0.001 pM. In assay [2], the Av IC50, TGF-β neutralization, Mv1Lu cell luciferase reporter assay was 96200 pM. For the same molecule, in assay [3], the Av IC50, TGF-β neutralization, Mv1Lu cell luciferase reporter assay came out at 0.001 pM and the IC50, A549 cell IL-11 release assay was found to be 5 pM. In assay [4], the Fold Change Fc-T2m, A549 cell IL-11 release assay [table] was 10 fold; the Fold Change T22d35, A549 cell IL-11 release assay [table] amounted to 101 fold; the IC50, A549 cell IL-11 release assay [table] was 5.73 pM.
